Source: doi:10.1101/2021.02.03.429507
pKd: −log10 of the molar value.

Assays:
[1] = molecular target: E-cad construct C (cytoplasmic tail of mouse E-cadherin, FRET labels on the C-terminal segment) (mouse) (UniProt P09803); test: single-molecule FRET
[2] = molecular target: E-cad construct A (cytoplasmic tail of mouse E-cadherin, FRET labels on the N-terminal segment) (mouse) (UniProt P09803); test: single-molecule FRET
[3] = molecular target: E-cad construct B (cytoplasmic tail of mouse E-cadherin, FRET labels on the central segment) (mouse) (UniProt P09803); test: single-molecule FRET
[4] = molecular target: Core-binding region peptide of E-cad, AlexaFluor 488 at the C-terminus (mouse); test: two-focus FCS
[5] = molecular target: Core-binding region peptide of E-cad, AlexaFluor 488 at the N-terminus (mouse); test: two-focus FCS

## Full-length murine beta-catenin (from UniProt Q02248 1-781) (natural protein)
[1]
  pKd: 8.40
[2]
  pKd: 8.40
[3]
  pKd: 8.40
[4]
  pKd: < 6.00
[5]
  pKd: < 6.00
